Experimental data from the supplement of paper PMC10567573.

B1: KRT18 (parent)
chain: KSQDLAKIMADIRAQYDELARKNR
B2: SCARA5 (parent)
chain: VTEDLRLKDWEHSIALRNISLAKG

Variants of: B1
Assay: protein stability index of a GFP-peptide fusion (GPS, HEK-293T) (PSI 1-6); higher = more stable
Details: c terminus: a fixed tail appended
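Note: lentivirally expressed fusions sorted by FACS into six bins by GFP to DsRed ratio, PSI derived from sequencing read proportions per bin multiplied by bin number.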

Variant | protein stability index
KDQDLAKIMADIRAQYDELARKNR [S2D] | 2.85
PSQDLAKIMADIRAQYDELARKNR [K1P] | 3.03
MSQDLAKIMADIRAQYDELARKNR [K1M] | 2.81
TSQDLAKIMADIRAQYDELARKNR [K1T] | 2.58
ESQDLAKIMADIRAQYDELARKNR [K1E] | 2.41
HSQDLAKIMADIRAQYDELARKNR [K1H] | 2.58
RSQDLAKIMADIRAQYDELARKNR [K1R] | 2.62
GSQDLAKIMADIRAQYDELARKNR [K1G] | 2.83
SSQDLAKIMADIRAQYDELARKNR [K1S] | 2.58
ASQDLAKIMADIRAQYDELARKNR [K1A] | 2.58
DSQDLAKIMADIRAQYDELARKNR [K1D] | 2.05
CSQDLAKIMADIRAQYDELARKNR [K1C] | 2.51
QSQDLAKIMADIRAQYDELARKNR [K1Q] | 2.9
FSQDLAKIMADIRAQYDELARKNR [K1F] | 3.1
NSQDLAKIMADIRAQYDELARKNR [K1N] | 2.6
WSQDLAKIMADIRAQYDELARKNR [K1W] | 2.28
VSQDLAKIMADIRAQYDELARKNR [K1V] | 2.71
YSQDLAKIMADIRAQYDELARKNR [K1Y] | 2.2
LSQDLAKIMADIRAQYDELARKNR [K1L] | 2.88
ISQDLAKIMADIRAQYDELARKNR [K1I] | 2.91
KSQILAKIMADIRAQYDELARKNR [D4I] | 2.1
KSQPLAKIMADIRAQYDELARKNR [D4P] | 2.68
KSQELAKIMADIRAQYDELARKNR [D4E] | 2.5
KSQTLAKIMADIRAQYDELARKNR [D4T] | 1.76
KSQFLAKIMADIRAQYDELARKNR [D4F] | 2.25
KSQNLAKIMADIRAQYDELARKNR [D4N] | 2.6

Variant | protein stability index
KSQGLAKIMADIRAQYDELARKNR [D4G] | 3.18
KSQYLAKIMADIRAQYDELARKNR [D4Y] | 1.88
KSQRLAKIMADIRAQYDELARKNR [D4R] | 2.68
KSQLLAKIMADIRAQYDELARKNR [D4L] | 1.72
KSQVLAKIMADIRAQYDELARKNR [D4V] | 1.61
KSQALAKIMADIRAQYDELARKNR [D4A] | 2.13
KSQQLAKIMADIRAQYDELARKNR [D4Q] | 2.42
KSQSLAKIMADIRAQYDELARKNR [D4S] | 2.38
KSQCLAKIMADIRAQYDELARKNR [D4C] | 1.64
KSQWLAKIMADIRAQYDELARKNR [D4W] | 2.04
KSQKLAKIMADIRAQYDELARKNR [D4K] | 1.98
KSQHLAKIMADIRAQYDELARKNR [D4H] | 3.03
KSQMLAKIMADIRAQYDELARKNR [D4M] | 1.99
KSQDLAKFMADIRAQYDELARKNR [I8F] | 1.64
KSQDLAKAMADIRAQYDELARKNR [I8A] | 3.06
KSQDLAKKMADIRAQYDELARKNR [I8K] | 3.79
KSQDLAKRMADIRAQYDELARKNR [I8R] | 3.35
KSQDLAKMMADIRAQYDELARKNR [I8M] | 3.42
KSQDLAKEMADIRAQYDELARKNR [I8E] | 4.17
KSQDLAKVMADIRAQYDELARKNR [I8V] | 2.99
KSQDLAKNMADIRAQYDELARKNR [I8N] | 3.86
KSQDLAKGMADIRAQYDELARKNR [I8G] | 4.54
KSQDLAKLMADIRAQYDELARKNR [I8L] | 3.13
KSQDLAKDMADIRAQYDELARKNR [I8D] | 4.13
KSQDLAKCMADIRAQYDELARKNR [I8C] | 3.37
KSQDLAKPMADIRAQYDELARKNR [I8P] | 4.5

Variant | protein stability index
KSQDLAKSMADIRAQYDELARKNR [I8S] | 4.34
KSQDLAKWMADIRAQYDELARKNR [I8W] | 2.4
KSQDLAKHMADIRAQYDELARKNR [I8H] | 3.8
KSQDLAKTMADIRAQYDELARKNR [I8T] | 3.27
KSQDLAKQMADIRAQYDELARKNR [I8Q] | 4.1
KSQDLAKYMADIRAQYDELARKNR [I8Y] | 3.23
KSIDLAKIMADIRAQYDELARKNR [Q3I] | 2.35
KSVDLAKIMADIRAQYDELARKNR [Q3V] | 2.34
KSLDLAKIMADIRAQYDELARKNR [Q3L] | 2.49
KSSDLAKIMADIRAQYDELARKNR [Q3S] | 2.69
KSTDLAKIMADIRAQYDELARKNR [Q3T] | 2.76
KSGDLAKIMADIRAQYDELARKNR [Q3G] | 2.72
KSFDLAKIMADIRAQYDELARKNR [Q3F] | 2.46
KSEDLAKIMADIRAQYDELARKNR [Q3E] | 2.89
KSWDLAKIMADIRAQYDELARKNR [Q3W] | 1.71
KSRDLAKIMADIRAQYDELARKNR [Q3R] | 2.57
KSHDLAKIMADIRAQYDELARKNR [Q3H] | 2.13
KSKDLAKIMADIRAQYDELARKNR [Q3K] | 2.37
KSNDLAKIMADIRAQYDELARKNR [Q3N] | 3.25
KSMDLAKIMADIRAQYDELARKNR [Q3M] | 2.41
KSYDLAKIMADIRAQYDELARKNR [Q3Y] | 1.88
KSADLAKIMADIRAQYDELARKNR [Q3A] | 2.31
KSPDLAKIMADIRAQYDELARKNR [Q3P] | 2.75
KSCDLAKIMADIRAQYDELARKNR [Q3C] | 2.02
KSDDLAKIMADIRAQYDELARKNR [Q3D] | 3.09

Variants of: B2
Assay: as above
Details: c terminus: a fixed tail appended

Variant | protein stability index
VTEDLRLKDWEHSIALRNISLAKI [G24I] | 2.42
VTEDLRLKDWEHSIALRNISLAKF [G24F] | 2.49
VTEDLRLKDWEHSIALRNISLAKR [G24R] | 3.46
VTEDLRLKDWEHSIALRNISLAKH [G24H] | 3.3
VTEDLRLKDWEHSIALRNISLAKV [G24V] | 2.26
VTEDLRLKDWEHSIALRNISLAKS [G24S] | 3.31
VTEDLRLKDWEHSIALRNISLAKE [G24E] | 4.13
VTEDLRLKDWEHSIALRNISLAKQ [G24Q] | 3.49
VTEDLRLKDWEHSIALRNISLAKL [G24L] | 2.04
VTEDLRLKDWEHSIALRNISLAKD [G24D] | 4.08
VTEDLRLKDWEHSIALRNISLAKN [G24N] | 3.06
VTEDLRLKDWEHSIALRNISLAKT [G24T] | 3.43
VTEDLRLKDWEHSIALRNISLAKM [G24M] | 2.95
VTEDLRLKDWEHSIALRNISLAKY [G24Y] | 3.14
VTEDLRLKDWEHSIALRNISLAKK [G24K] | 3.65
VTEDLRLKDWEHSIALRNISLAKW [G24W] | 2.39
VTEDLRLKDWEHSIALRNISLAKP [G24P] | 3.09
